According to patent publication US20230374148A1, “BINDING MOLECULES THAT MULTIMERISE CD45” (UCB BIOPHARMA SRL, priority 2020, published 2023):
Where “and” joins values, the source holds several entries; their conditions need not be identical. Equal values may be shown once.

B1: 4133-6294 BYbe: anti-CD45 BYbe (Fab-scFv): 4133 Fab HC-G4S linker-6294 scFv heavy chain paired with 4133 light chain (antibody)
heavy: QEQLVESGGGLVQPEGSLTLTCTASGFSFSGNYYMCWVRQAPGKGLEWIGCLYTGSSGSTYYASWAKGRFTISKTSSTTVTLQMTSLTAADTATYFCARDLGYEIDGYGGLWGQGTLVTVSSGQPKAPSVFPLAPCCGDTPSSTVTLGCLVKGYLPEPVTVTWNSGTLTNGVRTFPSVRQSSGLYSLSSVVSVTSSSQPVTCNVAHPATNTKVDKTVAPSTCSKPGGGGSGGGGSEVQLVESGAELARPGASVKMSCKASGYTFTSYTMHWVKQRPGQCLEWIGYINPSSGYTEYNQKFKDKTTLTADKSSSTAYLQLSSLTSEDSAVYYCARVGDGFYPSWLAYWGQGTLVTVSSGGGGSGGGGSGGGGSGGGGSDIQMTQSPKFLLVSAGDRVTITCKASQSVRNDVAWYQQKPGQSPKLLIFYASKRYTGVPDRFTGSGYGTDFTFTISTVQAEDLAVYFCQQDYSSPTTFGCGTKLEIK
light: AQVLTQTPSPVSAVVGGTVSISCQASQSVYNNNNLSWYQQKPGQPPKLLIYDASKLASGVPSRFKGSGSGTQFTLTISGVQCDDAATYYCLGGYYSSGWYFAFGGGTKVVVKRTPVAPTVLIFPPAADQVATGTVTIVCVANKYFPDVTVTWEVDGTTQTTGIENSKTPQNSADCTYNLSSTLTLTSTQYNSHKEYTCKVTQGTTSVVQSFNRGDC

How the values were obtained:
Assay type in all cases: cell-based
CCRF-SB = experiment: Apoptosis of cell lines: CCRF-SB; conditions: 21 hrs
Excerpt: (§1) The following cell lines representing various leukaemia's and lymphoma's, as classified by ATCC (www.atcc.org/), were used: Jurkat—acute T-cell leukaemia; CCRF-SB—B-cell acute lymphoblastic leukaemia; MC116—B-cell undifferentiated lymphoma; Raji, Ramos—Burkitt lymphoma (rare form of B-cell non-Hodgkin lymphoma); SU-DHL-4, SU-DHL-5, SU-DHL-8, NU-DUL-1, OCI-Ly3—Diffuse large B-cell lymphoma; THP-1—acute monocytic leukaemia; and Dakiki—B cell nasopharyngeal carcinoma.
(§2) Prior to an assay being performed, 1 vial of each of the above cell lines was thawed in a 37° C. water bath and then added to 20 ml complete media (RPMI 1640+2 mM GlutaMAX+1% Pen/Strep, all previous supplied by Invitrogen, +10% Fetal Bovine Serum (FBS), Sigma Aldrich). Cells were spun (500 g, 5 min, at RT) and re-suspended in 20 ml complete media to wash and spun again. Cells were resuspended in 10 ml complete media and then counted using a ChemoMetec NucleoCounter NC-3000. 6×10^6 cells of each cell line were spun (500 g, 5 min, at RT) and re-suspended in 4.8 ml complete media. 1×10^5 cells in 80 μl were then added to each well of a Corning Costar 96-well, cell culture treated, U-shaped-bottom microplate (cat no. 07-200-95). The plate was rested in a 37° C., 5% CO2 incubator for 2 hrs
(§3) Stocks of 4133-6294 BYbe and NegCtrl BYbe at 2500 nM in complete media were prepared. In a Greiner 96-well non-binding microplate, both reagents were serially diluted in complete media 1 in 5, seven times to produce to form an 8-point dose curve. […] (final well concentrations 500-0.0064 nM) was added to the cells. Each concentration was produced in triplicate. Camptothecin (cat no. C9911-100MG, Sigma Aldrich) and Staurosporine (cat no. 56942-200UL, Sigma Aldrich) were added as positive controls of apoptosis. Both were diluted in complete media and added to the well to produce a final concentration of 5 μM. Additional positive controls included anti-thymocyte globulin (ATG, indicated by FDA for use in conditioning regimens), Rituximab (anti-CD20, indicated by FDA for Non-Hodgkin Lymphoma and Chronic Lymphocytic Leukaemia) and Campath (anti-CD52, indicated by FDA for B-cell Chronic Lymphocytic Leukaemia). Anti-thymocyte globulin, Rituximab and Campath were added to the wells to produce final concentrations of 200 μg/ml, 500 nM and 200 μg/ml, respectively. […]
(§4) Following the incubation, the plates were spun at 500 g, 5 min, RT, the buffer was aspirated with a BioTek ELx405 microplate washer, and the cells were re-suspended in FACS buffer (PBS+1% bovine serum albumin (BSA)+0.1% NaN3+2 mM EDTA, Sigma Aldrich) to wash and then re-spun and buffer was aspirated to leave the cells in 20 μl residual media. […] Cells were analysed using the Bio-Rad ZE5 Cell Analyzer. […]

Ramos = experiment: Apoptosis of cell lines: Ramos; conditions: 21 hrs
Excerpt: as §1, §2, §3, §4

SU-DHL-5 = experiment: Apoptosis of cell lines: SU-DHL-5; conditions: SU-DHL-5, 21 hrs
Excerpt: as §1, §2, §3, §4

SU-DHL-8 = experiment: Apoptosis of cell lines: SU-DHL-8; conditions: SU-DHL-8, 21 hrs
Excerpt: as §1, §2, §3, §4

NU-DUL-1 = experiment: Apoptosis of cell lines: NU-DUL-1; conditions: NU-DUL-1, 21 hrs
Excerpt: as §1, §2, §3, §4

OCI-Ly3 = experiment: Apoptosis of cell lines: OCI-Ly3; conditions: OCI-Ly3, 21 hrs
Excerpt: as §1, §2, §3, §4

Molecule | Campath mean (%) cell reduction (CCRF-SB; 200 μg/ml) [%] | Campath mean (%) cell reduction (Ramos; 200 μg/ml) [%] | Campath mean (%) cell reduction (SU-DHL-5; 200 μg/ml) [%] | Campath mean (%) cell reduction (SU-DHL-8; 200 μg/ml) [%] | Campath mean (%) cell reduction (NU-DUL-1; 200 μg/ml) [%] | Campath mean (%) cell reduction (OCI-Ly3; 200 μg/ml) [%] | Bottom (%) level of % cell reduction (CCRF-SB) [%] | Top (%) level of % cell reduction (CCRF-SB) [%] | Bottom (%) level of % cell reduction (Ramos) [%] | Top (%) level of % cell reduction (Ramos) [%] | Bottom (%) level of % cell reduction (SU-DHL-5) [%] | Top (%) level of % cell reduction (SU-DHL-5) [%] | Bottom (%) level of % cell reduction (SU-DHL-8) [%] | Top (%) level of % cell reduction (SU-DHL-8) [%] | Bottom (%) level of % cell reduction (NU-DUL-1) [%] | Top (%) level of % cell reduction (NU-DUL-1) [%] | Bottom (%) level of % cell reduction (OCI-Ly3) [%] | Top (%) level of % cell reduction (OCI-Ly3)
Campath: anti-CD52, clinical grade, indicated by FDA for B-cell Chronic Lymphocytic Leukaemia; positive control [reference compound] | 24.86 | 39.40 | 26.74 | 7.97 | 67.49 | 6.72 |  |  |  |  |  |  |  |  |  |  |  | 
B1 |  |  |  |  |  |  | 13.95 | 83.40 | 1.61 | 96.11 | 43.93 | 91.01 | -2.97 | 16.77 | 5.07 | 44.87 | 10.54 | 39.84% and 39.94%
